{"source": "paper doi:10.1101/2024.06.26.600898", "about": "(bioRxiv, 2024)", "binders": {"B1": {"name": "AI-Poxblock723-strep tag Ⅱ-His8 (designed binder)", "chain": "MGLKKLQELKKKANELGKKAKEALDKGDFEKAKEYIKKGAEATKEYGELSGNKAAIEDGEKAEEVAEEIVKIAKEEKAKERSGGGGSGGGGS", "notes": "source: E. coli BL21(DE3), pET30a, purified (STarm Streptactin), exchanged into PBS"}}, "target": "H3(1-282)-strep tag Ⅱ-NGL (monkeypox virus (MPXV))", "assay": "BLI; […]; PBS; 100 s association, 120 s dissociation; global fit", "conditions": "both partners purified"}
{"binder": "B1", "values": [{"measurement": "Kd", "result": 9, "unit": "µM"}]}
